Laboratory results reported in patent publication US20250295734A1, “ANTICOAGULANT PROTEINS AND THEIR USE FOR TREATING DISEASES ASSOCIATED WITH THE ACTIVATION OF NEUTROPHILS” (BIOXODES, priority 2018, published 2025).
“Also recorded” adds a separate entry of the source.

Columns and labels:
[1] = system: neutrophils isolated from bone marrow of femurs of mice; assay: Neutrophil activation following incubation with TNFα (flow cytometry); assay type: cell-based, mice (C57BL/6)
Experimental: Neutrophils were isolated from the bone marrow of femurs of mice (C57BL/6) as previously described (Hu 2012), using FR-1-coupled magnetic beads (anti-Ly6G Microbead Kit, Miltenyi Biotec). For activation with TFNα, cells were harvested, centrifugated and incubated during 30 min with or without 2 ng/ml of TNFα in Hanks solution (Gibco). Next, neutrophils were incubated with Ir-CPI (0.65 or 2 μM) in Hanks solution (1 h at 37° C.). For activation with ATP, cells were harvested, centrifugated and incubated with ATP 10 μM and Ir-CPI (0.65 or 2 μM) in Hanks solution (1 h at 37° C.). After washing of cells, expression of CD11b, activated CD11b or Ly6G was assessed by flow cytometry (Beckman Coulter Gallios). Antibodies used for neutrophil identification and activation analyses were IRR IgG1-FITC (irrelevant antibody), anti-CD45-APC, anti-Ly6G-PE and anti-CD11b-FITC or Alexa Fluor 647 anti-activated CD11b-. Analysis of results was performed using the Kaluza software (Beckman Coulter). […]
Neutrophils isolated from bone marrow of femurs of mice were submitted to different in vitro experimental conditions (untreated control, priming with TNFα and/or incubation with Ir-CPI) to assess the effect of Ir-CPI on their activation status. The activation status was assessed by analyzing the percentage of CD11b expression at the surface of neutrophils (FIG. 16).

human neutrophils = assay: Phagocytosis assay with pHrodo E. coli bioparticles; assay type: cell-based; conditions: for neutrophil phagocytic activity: 3 donors
Experimental: The effect of Ir-CPI on the phagocytic activity of human neutrophils was assessed. For this purpose, freshly isolated neutrophils from 3 donors were pre-treated for 1 h with recombinant Ir-CPI at 2 different concentrations (5.0 or 15.3 μg/mL) and then incubated in the presence of pH-rodo® E. coli bioparticles (Sartorius). To evaluate the phagocytic activity, fluorescence was monitored every 15 min for up to 48 hours.
Neutrophils were directly isolated from whole blood by using the EasySep™ Direct Human Neutrophil Isolation Kit (StemCell) and according to the manufacturer's protocol. The purification is a negative selection (elimination of unwanted cell populations) to obtain intact neutrophils.
pHrodo® Green E. coli Bioparticles were resuspended at 1 mg/mL in PBS, vortexed and sonicated according to the manufacturer's protocol and then stored at 4° C. overnight. Then, 25.000 freshly isolated neutrophils, resuspended in RPMI 1640 medium containing 10% of FBS and supplements (2 mM Glutamine, 1% NEAA, 1 mM Sodium pyruvate, 50 μM B-mercaptoethanol and 50 μg/ml Gentamycin), were seeded per well in a 96 well-plate and preincubated for 1 h at 37° C., 5% CO2 with Ir-CPI at two different concentrations (2 μM and 0.65 μM). Then, pHrodo® Green E. coli Bioparticles were added at 10 μg/well and the plate was incubated in the Incucyte® Live-Cell Analysis System. Pictures were taken every 15 minutes for 48 hours. Two negative controls were performed: (1) only the neutrophils were seeded in absence of Ir-CPI and without particles, and (2) neutrophils were seeded in absence of Ir-CPI and incubated with the particles. All conditions were performed in triplicates.
To analyse neutrophil phagocytosis, the Green total area (μm2/image) was measured in each well every 15 minutes for 48 hours (2 pictures/well). Briefly, the IncuCyte® Basic Analysis software allows for the quantification of fluorescent object metrics in real-time. […]

FXIIa = target: T1, FXIIa (Homo sapiens, UniProt P00748); conditions: aPTT-based test, FXII deficient plasma; cited from earlier work
T1 construct: The resulting α-FXIIa has a heavy chain of 50 kDa, connected to a light chain of 28 kDa
T1 sequence (P00748 20-372 limits assumed): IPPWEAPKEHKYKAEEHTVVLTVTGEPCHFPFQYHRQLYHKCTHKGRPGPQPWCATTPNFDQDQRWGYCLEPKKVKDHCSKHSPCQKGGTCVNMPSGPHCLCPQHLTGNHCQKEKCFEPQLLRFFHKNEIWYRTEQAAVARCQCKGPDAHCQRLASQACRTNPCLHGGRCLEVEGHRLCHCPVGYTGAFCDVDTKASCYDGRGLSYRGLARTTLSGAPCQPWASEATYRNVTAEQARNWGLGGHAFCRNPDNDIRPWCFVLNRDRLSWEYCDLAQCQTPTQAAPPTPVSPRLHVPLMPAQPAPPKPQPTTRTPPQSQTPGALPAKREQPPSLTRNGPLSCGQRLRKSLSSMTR
T1 sequence (P00748 373-615 limits assumed): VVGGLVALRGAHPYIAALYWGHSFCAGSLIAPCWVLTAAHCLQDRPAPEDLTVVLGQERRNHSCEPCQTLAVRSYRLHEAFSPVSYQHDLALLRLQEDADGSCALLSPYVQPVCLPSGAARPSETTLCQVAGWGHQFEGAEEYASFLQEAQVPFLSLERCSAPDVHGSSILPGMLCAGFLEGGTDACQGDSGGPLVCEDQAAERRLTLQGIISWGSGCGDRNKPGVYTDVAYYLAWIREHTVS

kallikrein = kallikrein (Homo sapiens, UniProt P03952); conditions: cited from earlier work
[2] = system: venous thrombus formation; conditions: dose-dependent; cited from earlier work
FXI = FXI (Homo sapiens, UniProt P03951); conditions: cited from earlier work
thrombin = thrombin (Homo sapiens, UniProt P00734); conditions: cited from earlier work
[3] = Dissolution in NaCl 0.9% (solubility limit); assay type: physicochemical
Experimental: Ir-CPI was freshly prepared on the testing day by dissolution in NaCl 0.9% to reach the concentration of 50 mg/mL (corresponding to the maximal concentration to reach to avoid solubility issues).

prekallikrein (PK) = prekallikrein (PK) (Homo sapiens, UniProt P03952); conditions: cited from earlier work
Sequence of prekallikrein (PK) (P03952 20-638): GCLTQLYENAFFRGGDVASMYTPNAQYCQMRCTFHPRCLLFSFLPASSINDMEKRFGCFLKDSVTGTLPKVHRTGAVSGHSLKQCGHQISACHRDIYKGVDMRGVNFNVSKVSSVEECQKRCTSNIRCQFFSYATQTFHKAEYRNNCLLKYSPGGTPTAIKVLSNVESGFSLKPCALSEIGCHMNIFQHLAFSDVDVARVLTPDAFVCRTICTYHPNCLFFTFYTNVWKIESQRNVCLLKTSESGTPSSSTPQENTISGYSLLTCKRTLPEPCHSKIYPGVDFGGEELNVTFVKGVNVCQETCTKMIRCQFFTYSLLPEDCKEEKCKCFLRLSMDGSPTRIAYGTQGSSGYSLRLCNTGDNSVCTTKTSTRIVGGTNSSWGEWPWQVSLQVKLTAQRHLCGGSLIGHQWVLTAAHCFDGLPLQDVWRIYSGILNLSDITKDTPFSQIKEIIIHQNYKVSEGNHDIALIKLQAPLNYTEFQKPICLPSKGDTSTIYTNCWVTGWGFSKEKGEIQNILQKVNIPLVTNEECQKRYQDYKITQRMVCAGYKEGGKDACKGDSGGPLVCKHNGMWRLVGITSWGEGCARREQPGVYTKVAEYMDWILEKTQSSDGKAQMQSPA

Sequence of kallikrein (P03952 20-390 limits assumed): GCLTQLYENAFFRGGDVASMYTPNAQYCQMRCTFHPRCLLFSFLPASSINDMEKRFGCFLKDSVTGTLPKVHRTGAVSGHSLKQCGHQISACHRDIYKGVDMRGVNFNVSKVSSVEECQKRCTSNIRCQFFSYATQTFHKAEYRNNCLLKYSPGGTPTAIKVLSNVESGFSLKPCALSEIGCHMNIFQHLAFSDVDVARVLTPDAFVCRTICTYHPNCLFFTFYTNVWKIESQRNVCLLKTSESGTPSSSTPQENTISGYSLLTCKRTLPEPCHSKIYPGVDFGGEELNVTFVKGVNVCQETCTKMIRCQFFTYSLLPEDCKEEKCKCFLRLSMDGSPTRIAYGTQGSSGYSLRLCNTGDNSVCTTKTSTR
Sequence of kallikrein (P03952 391-638 limits assumed): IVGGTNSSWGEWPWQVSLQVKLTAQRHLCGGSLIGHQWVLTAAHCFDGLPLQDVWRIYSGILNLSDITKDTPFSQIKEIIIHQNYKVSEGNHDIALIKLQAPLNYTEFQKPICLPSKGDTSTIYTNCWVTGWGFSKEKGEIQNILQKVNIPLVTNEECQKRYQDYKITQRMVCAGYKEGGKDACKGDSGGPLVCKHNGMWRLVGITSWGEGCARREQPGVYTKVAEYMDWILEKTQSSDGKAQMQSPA

B1: Ir-CPI: Ixodes ricinus salivary gland polypeptide, contact phase inhibitor, MW=7660 Da; sequence SEQ ID NO: 1 or SEQ ID NO: 2 (protein)
chain: ANHKGRGRPAKCKLPPDDGPCRARIPSYYFDRKTKTCKEFMYGGCEGNENNFENITTCQEECRAKKV
CD11b expressed at cell surface ([1]; neutrophils primed with TNFα, Ir-CPI 2 μM, *p<0.05): significant reduction
expression of CD11b ([1]; untreated neutrophils, Ir-CPI 0.65 and 2 μM): no effect
neutrophil phagocytic activity (human neutrophils; recombinant Ir-CPI 5.0 μg/mL (0.65 μM)): no evidence for an effect
neutrophil phagocytic activity (human neutrophils; recombinant Ir-CPI 15.3 μg/mL (2 μM)): marginal (p-value just below threshold for significance) evidence for an increase
decrease of the phagocytic activity of human neutrophils (human neutrophils; whatever the concentration): did not induce a decrease
FXIIa clotting activity (FXIIa): inhibits
binding to kallikrein (kallikrein): binds
venous thrombus formation [2]: reduces venous thrombus formation
binding to FXI zymogen (FXI): but not to their zymogen forms; also recorded: unable to bind
activity on thrombin (thrombin): totally inactive
maximal concentration to reach to avoid solubility issues [3]: 50 mg/mL
binding to prekallikrein (PK) (prekallikrein (PK)): unable to bind
